Source: the Human Domainome abundance scans (Beltran et al. 2025)
± gives the uncertainty stated by the source.

B1: COUP transcription factor 1, residues 83 to 159; numbered along this chain, P10589 (parent)
chain: HIECVVCGDKSSGKHYGQFTCEGCKSFFKRSVRRNLTYTCRANRNCPIDQHHRNQCQYCRLKKCLKVGMRREAVQRG

Variants of: B1
Test: abundance fitness (aPCA) (normalised: wild type 0, dead -1); higher = more abundant; growth selection in yeast, the domain comes from the species named
Conditions: Homo sapiens

Question: With HIECVVCGDKSSGKHYGQFTCEGCKSFFKRSVRRNLTYTCRANRNCPYDQHHRNQCQYCRLKKCLKVGMRREAVQRG [I48Y] as the variant, how does the abundance fitness read?
Answer: Its abundance fitness is -0.518 ± 0.12.

Question: With HIECVVCGDKSSGKHYGQFTCEGCKSFFKRSVRRNLTYTCRANRNCPICQHHRNQCQYCRLKKCLKVGMRREAVQRG [D49C] as the variant, how does the abundance fitness read?
Answer: The abundance fitness was -0.726 ± 0.13.

Question: For HIECVVCGDKSSGKHYGQFTCEGCKSFFKRSVRRNLTYTCRANRNCPIEQHHRNQCQYCRLKKCLKVGMRREAVQRG [D49E], which abundance fitness is on record?
Answer: Its abundance fitness is -0.064 ± 0.076.

Question: Which abundance fitness does the source give for HIECVVCGDKSSGKHYGQFTCEGCKSFFKRSVRRNLTYTCRANRNCPIFQHHRNQCQYCRLKKCLKVGMRREAVQRG [D49F] here?
Answer: Its abundance fitness is 0.017 ± 0.062.

Question: Which abundance fitness does the source give for HIECVVCGDKSSGKHYGQFTCEGCKSFFKRSVRRNLTYTCRANRNCPIGQHHRNQCQYCRLKKCLKVGMRREAVQRG [D49G] here?
Answer: The abundance fitness was -0.108 ± 0.046.

Question: With HIECVVCGDKSSGKHYGQFTCEGCKSFFKRSVRRNLTYTCRANRNCPIHQHHRNQCQYCRLKKCLKVGMRREAVQRG [D49H] as the variant, how does the abundance fitness read?
Answer: Its abundance fitness is -0.269 ± 0.075.

Question: Which abundance fitness does the source give for HIECVVCGDKSSGKHYGQFTCEGCKSFFKRSVRRNLTYTCRANRNCPIIQHHRNQCQYCRLKKCLKVGMRREAVQRG [D49I] here?
Answer: Its abundance fitness is -0.199 ± 0.1.

Question: Which abundance fitness does the source give for HIECVVCGDKSSGKHYGQFTCEGCKSFFKRSVRRNLTYTCRANRNCPIKQHHRNQCQYCRLKKCLKVGMRREAVQRG [D49K] here?
Answer: Its abundance fitness is -0.343 ± 0.087.

Question: For HIECVVCGDKSSGKHYGQFTCEGCKSFFKRSVRRNLTYTCRANRNCPILQHHRNQCQYCRLKKCLKVGMRREAVQRG [D49L], which abundance fitness is on record?
Answer: Its abundance fitness is -0.122 ± 0.052.

Question: With HIECVVCGDKSSGKHYGQFTCEGCKSFFKRSVRRNLTYTCRANRNCPIMQHHRNQCQYCRLKKCLKVGMRREAVQRG [D49M] as the variant, how does the abundance fitness read?
Answer: Its abundance fitness is -0.175 ± 0.11.

Question: With HIECVVCGDKSSGKHYGQFTCEGCKSFFKRSVRRNLTYTCRANRNCPINQHHRNQCQYCRLKKCLKVGMRREAVQRG [D49N] as the variant, how does the abundance fitness read?
Answer: Its abundance fitness is -0.003 ± 0.052.

Question: With HIECVVCGDKSSGKHYGQFTCEGCKSFFKRSVRRNLTYTCRANRNCPIPQHHRNQCQYCRLKKCLKVGMRREAVQRG [D49P] as the variant, how does the abundance fitness read?
Answer: The abundance fitness was -0.323 ± 0.067.

Question: For HIECVVCGDKSSGKHYGQFTCEGCKSFFKRSVRRNLTYTCRANRNCPIQQHHRNQCQYCRLKKCLKVGMRREAVQRG [D49Q], which abundance fitness is on record?
Answer: Its abundance fitness is -0.083 ± 0.078.

Question: For HIECVVCGDKSSGKHYGQFTCEGCKSFFKRSVRRNLTYTCRANRNCPIRQHHRNQCQYCRLKKCLKVGMRREAVQRG [D49R], which abundance fitness is on record?
Answer: Its abundance fitness is -0.313 ± 0.056.

Question: Which abundance fitness does the source give for HIECVVCGDKSSGKHYGQFTCEGCKSFFKRSVRRNLTYTCRANRNCPISQHHRNQCQYCRLKKCLKVGMRREAVQRG [D49S] here?
Answer: The abundance fitness was -0.044 ± 0.044.

Question: For HIECVVCGDKSSGKHYGQFTCEGCKSFFKRSVRRNLTYTCRANRNCPITQHHRNQCQYCRLKKCLKVGMRREAVQRG [D49T], which abundance fitness is on record?
Answer: The abundance fitness was -0.152 ± 0.049.

Question: With HIECVVCGDKSSGKHYGQFTCEGCKSFFKRSVRRNLTYTCRANRNCPIVQHHRNQCQYCRLKKCLKVGMRREAVQRG [D49V] as the variant, how does the abundance fitness read?
Answer: The abundance fitness was -0.141 ± 0.052.

Question: For HIECVVCGDKSSGKHYGQFTCEGCKSFFKRSVRRNLTYTCRANRNCPIWQHHRNQCQYCRLKKCLKVGMRREAVQRG [D49W], which abundance fitness is on record?
Answer: Its abundance fitness is -0.13 ± 0.069.

Question: For HIECVVCGDKSSGKHYGQFTCEGCKSFFKRSVRRNLTYTCRANRNCPIYQHHRNQCQYCRLKKCLKVGMRREAVQRG [D49Y], which abundance fitness is on record?
Answer: Its abundance fitness is -0.261 ± 0.078.

Question: Which abundance fitness does the source give for HIECVVCGDKSSGKHYGQFTCEGCKSFFKRSVRRNLTYTCRANRNCPIDAHHRNQCQYCRLKKCLKVGMRREAVQRG [Q50A] here?
Answer: Its abundance fitness is 0.063 ± 0.037.

Question: Which abundance fitness does the source give for HIECVVCGDKSSGKHYGQFTCEGCKSFFKRSVRRNLTYTCRANRNCPIDCHHRNQCQYCRLKKCLKVGMRREAVQRG [Q50C] here?
Answer: The abundance fitness was -0.078 ± 0.071.

Question: Which abundance fitness does the source give for HIECVVCGDKSSGKHYGQFTCEGCKSFFKRSVRRNLTYTCRANRNCPIDDHHRNQCQYCRLKKCLKVGMRREAVQRG [Q50D] here?
Answer: The abundance fitness was 0.03 ± 0.071.

Question: With HIECVVCGDKSSGKHYGQFTCEGCKSFFKRSVRRNLTYTCRANRNCPIDEHHRNQCQYCRLKKCLKVGMRREAVQRG [Q50E] as the variant, how does the abundance fitness read?
Answer: Its abundance fitness is 0.05 ± 0.044.

Question: For HIECVVCGDKSSGKHYGQFTCEGCKSFFKRSVRRNLTYTCRANRNCPIDFHHRNQCQYCRLKKCLKVGMRREAVQRG [Q50F], which abundance fitness is on record?
Answer: Its abundance fitness is -0.299 ± 0.17.

Question: Which abundance fitness does the source give for HIECVVCGDKSSGKHYGQFTCEGCKSFFKRSVRRNLTYTCRANRNCPIDGHHRNQCQYCRLKKCLKVGMRREAVQRG [Q50G] here?
Answer: The abundance fitness was -0.149 ± 0.035.

Question: Which abundance fitness does the source give for HIECVVCGDKSSGKHYGQFTCEGCKSFFKRSVRRNLTYTCRANRNCPIDIHHRNQCQYCRLKKCLKVGMRREAVQRG [Q50I] here?
Answer: The abundance fitness was 0.117 ± 0.089.

Question: Which abundance fitness does the source give for HIECVVCGDKSSGKHYGQFTCEGCKSFFKRSVRRNLTYTCRANRNCPIDKHHRNQCQYCRLKKCLKVGMRREAVQRG [Q50K] here?
Answer: The abundance fitness was 0.097 ± 0.062.

Question: For HIECVVCGDKSSGKHYGQFTCEGCKSFFKRSVRRNLTYTCRANRNCPIDMHHRNQCQYCRLKKCLKVGMRREAVQRG [Q50M], which abundance fitness is on record?
Answer: The abundance fitness was -0.088 ± 0.062.

Question: For HIECVVCGDKSSGKHYGQFTCEGCKSFFKRSVRRNLTYTCRANRNCPIDNHHRNQCQYCRLKKCLKVGMRREAVQRG [Q50N], which abundance fitness is on record?
Answer: The abundance fitness was 0.012 ± 0.11.

Question: With HIECVVCGDKSSGKHYGQFTCEGCKSFFKRSVRRNLTYTCRANRNCPIDRHHRNQCQYCRLKKCLKVGMRREAVQRG [Q50R] as the variant, how does the abundance fitness read?
Answer: The abundance fitness was -0.119 ± 0.036.

Question: With HIECVVCGDKSSGKHYGQFTCEGCKSFFKRSVRRNLTYTCRANRNCPIDSHHRNQCQYCRLKKCLKVGMRREAVQRG [Q50S] as the variant, how does the abundance fitness read?
Answer: The abundance fitness was -0.086 ± 0.054.

Question: For HIECVVCGDKSSGKHYGQFTCEGCKSFFKRSVRRNLTYTCRANRNCPIDTHHRNQCQYCRLKKCLKVGMRREAVQRG [Q50T], which abundance fitness is on record?
Answer: The abundance fitness was -0.076 ± 0.069.

Question: With HIECVVCGDKSSGKHYGQFTCEGCKSFFKRSVRRNLTYTCRANRNCPIDVHHRNQCQYCRLKKCLKVGMRREAVQRG [Q50V] as the variant, how does the abundance fitness read?
Answer: The abundance fitness was -0.086 ± 0.041.

Question: With HIECVVCGDKSSGKHYGQFTCEGCKSFFKRSVRRNLTYTCRANRNCPIDWHHRNQCQYCRLKKCLKVGMRREAVQRG [Q50W] as the variant, how does the abundance fitness read?
Answer: The abundance fitness was -0.06 ± 0.05.

Question: With HIECVVCGDKSSGKHYGQFTCEGCKSFFKRSVRRNLTYTCRANRNCPIDYHHRNQCQYCRLKKCLKVGMRREAVQRG [Q50Y] as the variant, how does the abundance fitness read?
Answer: The abundance fitness was -0.066 ± 0.1.

Question: For HIECVVCGDKSSGKHYGQFTCEGCKSFFKRSVRRNLTYTCRANRNCPIDQAHRNQCQYCRLKKCLKVGMRREAVQRG [H51A], which abundance fitness is on record?
Answer: Its abundance fitness is 0.039 ± 0.044.
